Laboratory results published in patent US20190367612A1 (Daiichi Sankyo, published 2019).

B1: human chimeric 7B4 (antibody, human IgG1, V domains shown)
VH: EIHLQESGPGLVKPSQSLSLTCSVTGYTITSGYDWSWIRKFPGNKMEWMAYMSYRGSTNYNPSLKSRISITRDTSKNQFFLQLNSVTTEDTATYYCALTRTYWYNYYYVLDAWGQGASVTVSS
VL: DIQMTQSPSFLSASVGERVTLSCKASQNINKYLDWYQQKLGEPPKLLIYNTNNLHTGIPSRFSGSGSGTDYTLTISGLQPEDVATYFCLQRNSWYTFGAGTKLELKR
notes: Human IgG1 / kappa constant regions
B2: IgG form of the human antibody C3048 (antibody, V domains shown)
VH: QVQLVQSGAEVKKPGSSVKVSCKASGGTFSRYAISWVRQAPGQGLEWMGGIIPIFGTANYAQKFQGRVTITADQSTRTAYMDLGRLRSEDTAVYYCALEGFRDSLKRNPFDIWGQGTMVTVSS
VL: QSVVTQPPSVSAAPGQKVTISCSGGTTNIGSNYVSWYQQLPGTAPKFLMYENNKRPSGIPDRFSGSKSGTSATLAITGLQTGDEATYYCSTWDSSLNTGLFGGGTKLTVLG
notes: Human IgG1; also called C3048 IgG form; full-length IgG form containing C3048
B3: human antibody C3022 scFv (scFv)
scFv: QVQLVQSGAEVKKPGASVKVSCKASGYTFTGYYMHWVRQAPGQGLEWMGRINPNSGGTNYAQKFQGRVTMTRDTSISTAYMELSGLRSDDTAVYYCASGSVRHPWGQGTLVTVSSGGGGSGGGGSGGGGSQPVLTQPPSASGTPGQRVTISCSGSRSNIGGNIVSWYQQFPGTAPRLLTYADNQRPSGVPDRFSGSKSGTSASLAISGLQSEDEADYYCAAWDDSLNGVVFGGGTKLTVL
notes: also called C3022 antibody scFv; not shown: FLAG and His tags at the carboxyl terminus
B4: human chimeric 2A4 (antibody, human IgG1, V domains shown)
VH: QVQLQQSGAELAKPGTSVKLSCKASGYTFTSYYIYWVKQRPGQGLEWIGYVYPGYGGTYYSDKFKGKATFTADTSSSTAYMLLGSLTPEDSAYYFCARRKGIIRGPGYFDYWGQGVMVTVSS
VL: DIQMTQSPASLSASLGETVSIECLASEGISNSLAWYQQKPGKSPQLLIYGASSLQDGVPSRFSGSGSGTQYSLKISGMQPEDEGLYYCQQGYKYPPTFGGGTKLELKR
notes: as for B1
B5: IgG form of the human antibody C3022 (antibody, V domains shown)
VH: QVQLVQSGAEVKKPGASVKVSCKASGYTFTGYYMHWVRQAPGQGLEWMGRINPNSGGTNYAQKFQGRVTMTRDTSISTAYMELSGLRSDDTAVYYCASGSVRHPWGQGTLVTVSS
VL: QPVLTQPPSASGTPGQRVTISCSGSRSNIGGNIVSWYQQFPGTAPRLLTYADNQRPSGVPDRFSGSKSGTSASLAISGLQSEDEADYYCAAWDDSLNGVVFGGGTKLTVLG
notes: Human IgG1; also called C3022 IgG form; full-length IgG form containing C3022
B6: IgG form of the human antibody C2037 (antibody, V domains shown)
VH: not shown
VL: QPVLTQPPSASGTPGQRVTISCSGSNSNIGSRTVNWYQHLPGTAPRLLIYGNNQWPSGVPDRFSGSKSGSSASLAISGLRSEDEADYYCAAWDDSLSGVVFGGGTKLTVLG
notes: Human IgG1; also called C2037 IgG form; full-length IgG form containing C2037

Assays:
mouse GPRC5D = target: T1, mouse GPRC5D (mouse, UniProt Q9JIL6 1-344); assay: flow cytometry, in the same way as in Example 5)-2
T1 construct: whole, on cells
T1 sequence (looked up): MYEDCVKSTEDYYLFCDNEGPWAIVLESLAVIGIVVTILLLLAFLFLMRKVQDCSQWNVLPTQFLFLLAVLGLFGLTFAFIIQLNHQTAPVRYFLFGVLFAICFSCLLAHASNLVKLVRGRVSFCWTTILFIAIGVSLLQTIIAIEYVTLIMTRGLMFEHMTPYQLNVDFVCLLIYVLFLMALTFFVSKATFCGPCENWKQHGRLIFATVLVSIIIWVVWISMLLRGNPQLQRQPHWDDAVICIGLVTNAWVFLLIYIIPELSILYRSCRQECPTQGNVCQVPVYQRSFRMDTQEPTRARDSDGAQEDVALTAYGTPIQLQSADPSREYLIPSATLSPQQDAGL

[1] = target: T2, amino-terminal peptide of cynomolgus monkey GPRC5D …(Biotin)-NH2 (cynomolgus monkey, C-terminal lysine carrying biotin, C-terminal amide); assay: ELISA, chemiluminescence: biotinylated amino-terminal peptide of cynomolgus monkey GPRC5D on NeutrAvidin, culture supernatant of IgG-expressing cells (one concentration, not given), HRP anti-human Fab detection
T2 construct: also called amino-terminal peptide of biotinylated cynomolgus monkey GPRC5D
T2 peptide: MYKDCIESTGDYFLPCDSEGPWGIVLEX
Protocol: (§1) NeutrAvidin diluted to 1 μg/mL with PBS was added in an amount of 50 μL/well to 96-well Maxi-sorp plate, and the plate was left standing overnight at 4° C. for immobilization. After washing three times with an ELISA buffer, the amino-terminal peptide of the biotinylated human or cynomolgus monkey GPRC5D (used in Example 10)-1) diluted to 1 μg/mL with PBS was added thereto, and the plate was shaken at room temperature for 1 hour. After washing three times with an ELISA buffer, the plate was blocked with Blocker Casein and washed three times with an ELISA buffer. Then, the culture solution of the IgG-expressing FreeStyle 293F cells was added to the plate and reacted at room temperature for 2 hours. After washing three times with an ELISA buffer, a horseradish peroxidase (HRP)-labeled anti-human Fab antibody (Jackson ImmunoResearch Laboratories, Inc.) diluted 2500-fold with ELISA buffer was added thereto in an amount of 50 μL/well and reacted at room temperature for 1 hour. After washing five times with an ELISA buffer, SuperSignal Pico ELISA Chemiluminescent substrate was added. After 10 minutes, the chemiluminescence was measured using a plate reader.

[2] = target: T3, human GPRC5D amino-terminal peptide MYKDCIESTGDYFLLCDAEGPWGIILE-K(Biotin)-NH2, having an intramolecular … (human, C-terminal lysine carrying biotin, C-terminal amide; intramolecularly formed disulfide bond); assay: ELISA, chemiluminescence: biotinylated amino-terminal peptide of human GPRC5D on NeutrAvidin, culture supernatant of IgG-expressing cells (one concentration, not given), HRP anti-human Fab detection
T3 construct: Peptide Institute synthetic peptide; also called amino-terminal peptide of biotinylated human GPRC5D (disulfide bond present)
T3 peptide: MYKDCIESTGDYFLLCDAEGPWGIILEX
Protocol: as §1

human GPRC5D [3] = target: T4, human GPRC5D (human, UniProt Q9NZD1 1-345); assay: flow cytometry on KHM-1B cells (human GPRC5D), PE anti-human IgG Fc detection, rMFI = MFI minus isotype control
T4 construct: whole, on cells; also called hGPRC5D; G-protein coupled receptor family C group 5 member D
Protocol: Human multiple myeloma cell line KHM-1B cells expressing GPRC5D were adjusted to a concentration of 2×10⁶ cells/mL with PBS containing 5% FBS, inoculated in an amount of 100 μL/well to a 96-well U-bottomed microplate, and centrifuged to remove the supernatant. The culture supernatant of each human anti-GPRC5D antibody (full-length IgG form containing C2037, C3048, C3015, or C3022) obtained in Example 10)-5 or Human IgG isotype control antibody (Calbiochem/Merck Millipore Corp.) adjusted to 14 ng/mL to 30 μg/mL was added thereto in an amount of 100 μL/well, and the plate was left standing at 4° C. for 1 hour. The cells were washed twice with PBS containing 5% FBS. Then, R-Phycoerythrin AffiniPure F(ab′)2 Fragment Goat Anti-Human IgG, Fcγ Fragment Specific (Jackson ImmunoResearch Laboratories, Inc.) diluted 100-fold with PBS containing 5% FBS was added thereto in an amount of 100 μL/well, and the plate was left standing at 4° C. for 1 hour. The cells were washed twice with PBS containing 5% FBS and then resuspended in PBS containing 5% FBS, followed by detection using a flow cytometer (FACSCanto™ II; Becton, Dickinson and Company). The data was analyzed using Flowjo (Tree Star, Inc.). The PE fluorescence intensity of the cell fraction was plotted to a histogram, and the mean fluorescence intensity (MFI) was calculated. The MFI value of the control antibody was subtracted from the MFI value of the GPRC5D antibody to calculate a relative value of MFI (rMFI).

[4] = target: T2, amino-terminal peptide of cynomolgus …; assay: ELISA, chemiluminescence: biotinylated amino-terminal peptide of cynomolgus monkey GPRC5D on NeutrAvidin, scFv detected with HRP anti-FLAG antibody
Protocol: NeutrAvidin diluted to 1 μg/mL with PBS was added in an amount of 50 μL/well to 96-well Maxi-sorp plate (Black, Nunc/Thermo Fisher Scientific Inc.), and the plate was left standing overnight at 4° C. for immobilization. After washing three times with an ELISA buffer, the amino-terminal peptide of the biotinylated human or cynomolgus monkey GPRC5D (used in Example 10)-1) diluted to 1 μg/mL with PBS was added thereto, and the plate was shaken at room temperature for 1 hour. After washing three times with an ELISA buffer, the plate was blocked with Blocker Casein and washed three times with an ELISA buffer. Then, the C2037, C3048, C3015, or C3022 scFv was added to the plate and reacted at room temperature for 2 hours. After washing three times with an ELISA buffer, a horseradish peroxidase (HRP)-labeled anti-FLAG antibody diluted 5000-fold with an ELISA buffer was added thereto in an amount of 50 μL/well and reacted at room temperature for 1 hour. After washing five times with an ELISA buffer, SuperSignal Pico ELISA Chemiluminescent substrate was added. After 10 minutes, the chemiluminescence was measured using a plate reader.

[5] = target: T3, human GPRC5D amino-terminal peptide …; assay: SPR (Biacore T200), kinetic analysis: biotinylated amino-terminal peptide of human GPRC5D on Sensor Chip CAP, scFv as analyte
Protocol: The binding activity of the anti-GPRC5D antibodies against the amino-terminal peptide of human GPRC5D was tested by SPR using Biacore T200. The amino-terminal peptide of biotinylated human GPRC5D diluted to 2 nM with HBS-EP+ (manufactured by GE Healthcare Bio-Sciences Corp.) was immobilized on Sensor Chip CAP (manufactured by GE Healthcare Bio-Sciences Corp.) by contact at a rate of 10 μL/min for 180 seconds. Then, Kd was calculated by kinetic analysis using a plurality of concentrations of each scFv diluted with HBS-EP+ as analytes.

human GPRC5D [6] = target: T4, human GPRC5D; assay: flow cytometry on KMS-34 cells (endogenous human GPRC5D), anti-FLAG antibody and Alexa 488 anti-mouse IgG detection
Protocol: The KMS-34 cells were recovered by centrifugation, washed twice with a FACS buffer (PBS containing 0.5% BSA and 2 mM EDTA, pH 7.4), and then suspended in the same solution as above. The C2037, C3048, C3015 or C3022 scFv was added to the obtained cell suspension, and the mixture was left standing at 4° C. for 2 hours. After washing twice with a FACS buffer, the cells were suspended by the addition of an anti-FLAG antibody (Sigma-Aldrich Corp.), and the mixture was further left standing at 4° C. for 1 hour. After washing twice with a FACS buffer, the cells were suspended by the addition of Alexa 488-labeled anti-mouse IgG antibody (Jackson ImmunoResearch Laboratories, Inc.), and the mixture was further left standing at 4° C. for 1 hour. After washing twice with a FACS buffer, the cells were fixed in 1% PFA (prepared from a 32% paraformaldehyde solution (Electron Microscopy Sciences)), followed by detection using a flow cytometer (FACSCanto™ II; Becton, Dickinson and Company). The data was analyzed using Flowjo (Tree Star, Inc.).

Row | Binder | binding result (mouse GPRC5D) | binding result [1] | binding result [2] | EC50 (read off the curve) (human GPRC5D [3]) [nM] | other results
1 | B1 | no binding |  |  |  | 
2 | B2 |  | binds | binds | 7 to 8 | 
3 | B3 |  |  |  |  | binding result [4]: binds; Kd [5]: 95 nM; binding result (human GPRC5D [6]): binds
4 | B4 | no binding |  |  |  | 
5 | B5 |  | binds | binds |  | binding result (human GPRC5D [3]): binds
6 | B6 |  | binds | binds | ~8 | 
